{"source": "paper PMC11128199", "about": "(2024)", "target": "S protein of WT SARS-CoV-2 (SARS-CoV-2, UniProt P0DTC2)", "experiment": "ELISA", "data": [{"binder": "55A8 neutralizing antibody (IgG) (antibody, V domains shown) VH: QVQLVQSGAEVKKPGSSVKVSCKASGGTFSSYSFIWVRQAPGQGLEWMGRIIPILGIANYAQKFQGRVTITADKSTTTAYMELSSLRSEDTAVYYCARGTEYGDYDVSHDWGQGTLVTVSS VL: not shown", "values": [{"measurement": "EC50", "value": 0.0439, "unit": "µg/mL"}]}]}
